Test results from patent publication US20220409550A1 (KOREA INSTITUTE OF SCIENCE AND TECHNOLOGY, published 2022).

Target: murine PD-L1 on CHO-K1 cells (murine, UniProt Q9EP73 19-290)
Experiment: cell-based or functional assay

Sequence of murine PD-L1 on CHO-K1 cells (Q9EP73 19-290): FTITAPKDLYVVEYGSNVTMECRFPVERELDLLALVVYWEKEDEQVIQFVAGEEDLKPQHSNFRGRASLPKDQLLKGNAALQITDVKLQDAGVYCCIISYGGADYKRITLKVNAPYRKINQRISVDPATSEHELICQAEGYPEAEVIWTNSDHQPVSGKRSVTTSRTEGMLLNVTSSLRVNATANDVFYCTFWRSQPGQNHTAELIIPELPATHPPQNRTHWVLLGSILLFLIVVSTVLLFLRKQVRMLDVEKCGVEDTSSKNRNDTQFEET

half maximal effective concentration (EC50), NFAT-mediated luciferase expression, bioluminescent PD-1/PD-L1 blockade bioassay: 457 nM
B1: monomeric form of soluble PD-1 (sPD-1) of the ecto-domain of murine PD-1 (receptor)
chain: MHHHHHHLEVPNGPWRSLTFYPAWLTVSEGANATFTCSLSNWSEDLMLNWNRLSPSNQTEKQAAFCNGLSQPVQDARFQIIQLPNRHDFHMNILDTRRNDSGIYLCGAISLHPKAKIEESPGAELVVT
